Results reported in IntAct's records for PubMed 31515488.

B1: PiggyBac transposable element-derived protein 1 (Homo sapiens), Q96JS3 (parent)
chain: MYEALPGPAPENEDGLVKVKEEDPTWEQVCNSQEGSSHTQEICRLRFRHFCYQEAHGPQEALAQLRELCHQWLRPEMHTKEQIMELLVLEQFLTILPKELQPCVKTYPLESGEEAVTVLENLETGSGDTGQQASVYIQGQDMHPMVAEYQGVSLECQSLQLLPGITTLKCEPPQRPQGNPQEVSGPVPHGSAHLQEKNPRDKAVVPVFNPVRSQTLVKTEEETAQAVAAEKWSHLSLTRRNLCGNSAQETVMSLSPMTEEIVTKDRLFKAKQETSEEMEQSGEASGKPNRECAPQIPCSTPIATERTVAHLNTLKDRHPGDLWARMHISSLEYAAGDITRKGRKKDKARVSELLQGLSFSGDSDVEKDNEPEIQPAQKKLKVSCFPEKSWTKRDIKPNFPSWSALDSGLLNLKSEKLNPVELFELFFDDETFNLIVNETNNYASQKNVSLEVTVQEMRCVFGVLLLSGFMRHPRREMYWEVSDTDQNLVRDAIRRDRFELIFSNLHFADNGHLDQKDKFTKLRPLIKQMNKNFLLYAPLEEYYCFDKSMCECFDSDQFLNGKPIRIGYKIWCGTTTQGYLVWFEPYQEESTMKVDEDPDLGLGGNLVMNFADVLLERGQYPYHLCFDSFFTSVKLLSALKKKGVRATGTIRENRTEKCPLMNVEHMKKMKRGYFDFRIEENNEIILCRWYGDGIISLCSNAVGIEPVNEVSCCDADNEEIPQISQPSIVKVYDECKEGVAKMDQIISKYRVRIRSKKWYSILVSYMIDVAMNNAWQLHRACNPGASLDPLDFRRFVAHFYLEHNAHLSD
B2: Keratin, type I cytoskeletal 13 (Homo sapiens), P13646 (parent)
chain: MSLRLQSSSASYGGGFGGGSCQLGGGRGVSTCSTRFVSGGSAGGYGGGVSCGFGGGAGSGFGGGYGGGLGGGYGGGLGGGFGGGFAGGFVDFGACDGGLLTGNEKITMQNLNDRLASYLEKVRALEEANADLEVKIRDWHLKQSPASPERDYSPYYKTIEELRDKILTATIENNRVILEIDNARLAADDFRLKYENELALRQSVEADINGLRRVLDELTLSKTDLEMQIESLNEELAYMKKNHEEEMKEFSNQVVGQVNVEMDATPGIDLTRVLAEMREQYEAMAERNRRDAEEWFHTKSAELNKEVSTNTAMIQTSKTEITELRRTLQGLEIELQSQLSMKAGLENTVAETECRYALQLQQIQGLISSIEAQLSELRSEMECQNQEYKMLLDIKTRLEQEIATYRSLLEGQDAKMIGFPSSAGSVSPRSTSVTTTSSASVTTTSNASGRRTSDVRRP
B3: Copper homeostasis protein cutC homolog (Homo sapiens), Q9NTM9 (parent)
chain: MKRQGASSERKRARIPSGKAGAANGFLMEVCVDSVESAVNAERGGADRIELCSGLSEGGTTPSMGVLQVVKQSVQIPVFVMIRPRGGDFLYSDREIEVMKADIRLAKLYGADGLVFGALTEDGHIDKELCMSLMAICRPLPVTFHRAFDMVHDPMAALETLLTLGFERVLTSGCDSSALEGLPLIKRLIEQAKGRIVVMPGGGITDRNLQRILEGSGATEFHCSARSTRDSGMKFRNSSVAMGASLSCSEYSLKVTDVTKVRTLNAIAKNILV
B4: U3 small nucleolar RNA-associated protein 14 homolog A (Homo sapiens), Q9BVJ6 (parent)
chain: MTANRLAESLLALSQQEELADLPKDYLLSESEDEGDNDGERKHQKLLEAISSLDGKNRRKLAERSEASLKVSEFNVSSEGSGEKLVLADLLEPVKTSSSLATVKKQLSRVKSKKTVELPLNKEEIERIHREVAFNKTAQVLSKWDPVVLKNRQAEQLVFPLEKEEPAIAPIEHVLSGWKARTPLEQEIFNLLHKNKQPVTDPLLTPVEKASLRAMSLEEAKMRRAELQRARALQSYYEAKARREKKIKSKKYHKVVKKGKAKKALKEFEQLRKVNPAAALEELEKIEKARMMERMSLKHQNSGKWAKSKAIMAKYDLEARQAMQEQLSKNKELTQKLQVASESEEEEGGTEDVEELLVPDVVNEVQMNADGPNPWMLRSCTSDTKEAATQEDPEQLPELEAHGVSESEGEERPVAEEEILLREFEERRSLRKRSELSQDAEPAGSQETKDSGSQEVLSELRVLSQKLKENHQSRKQKASSEGTIPQVQREEPAPEEEEPLLLQRPERVQTLEELEELGKEECFQNKELPRPVLEGQQSERTPNNRPDAPKEKKKKEQMIDLQNLLTTQSPSVKSLAVPTIEELEDEEERNHRQMIKEAFAGDDVIRDFLKEKREAVEASKPKDVDLTLPGWGEWGGVGLKPSAKKRRRFLIKAPEGPPRKDKNLPNVIINEKRNIHAAAHQVRVLPYPFTHHWQFERTIQTPIGSTWNTQRAFQKLTTPKVVTKPGHIINPIKAEDVGYRSSSRSDLSVIQRNPKRITTRHKKQLKKCSVD
B5: Four and a half LIM domains protein 2 (Homo sapiens), Q14192 (parent)
chain: MTERFDCHHCNESLFGKKYILREESPYCVVCFETLFANTCEECGKPIGCDCKDLSYKDRHWHEACFHCSQCRNSLVDKPFAAKEDQLLCTDCYSNEYSSKCQECKKTIMPGTRKMEYKGSSWHETCFICHRCQQPIGTKSFIPKDNQNFCVPCYEKQHAMQCVQCKKPITTGGVTYREQPWHKECFVCTACRKQLSGQRFTARDDFAYCLNCFCDLYAKKCAGCTNPISGLGGTKYISFEERQWHNDCFNCKKCSLSLVGRGFLTERDDILCPDCGKDI
partner: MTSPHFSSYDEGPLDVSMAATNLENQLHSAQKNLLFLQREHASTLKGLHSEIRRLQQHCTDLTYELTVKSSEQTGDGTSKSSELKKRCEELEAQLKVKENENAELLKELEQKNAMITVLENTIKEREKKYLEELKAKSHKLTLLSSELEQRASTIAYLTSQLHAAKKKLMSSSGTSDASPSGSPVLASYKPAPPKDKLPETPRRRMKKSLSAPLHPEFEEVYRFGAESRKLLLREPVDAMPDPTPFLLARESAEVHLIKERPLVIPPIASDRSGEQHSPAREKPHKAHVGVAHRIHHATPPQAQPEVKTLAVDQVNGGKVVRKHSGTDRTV

Variants of: B1
Settings: with traf2_human TRAF2, Q12933
Sequence of traf2_human TRAF2, Q12933 (Q12933 whole entry): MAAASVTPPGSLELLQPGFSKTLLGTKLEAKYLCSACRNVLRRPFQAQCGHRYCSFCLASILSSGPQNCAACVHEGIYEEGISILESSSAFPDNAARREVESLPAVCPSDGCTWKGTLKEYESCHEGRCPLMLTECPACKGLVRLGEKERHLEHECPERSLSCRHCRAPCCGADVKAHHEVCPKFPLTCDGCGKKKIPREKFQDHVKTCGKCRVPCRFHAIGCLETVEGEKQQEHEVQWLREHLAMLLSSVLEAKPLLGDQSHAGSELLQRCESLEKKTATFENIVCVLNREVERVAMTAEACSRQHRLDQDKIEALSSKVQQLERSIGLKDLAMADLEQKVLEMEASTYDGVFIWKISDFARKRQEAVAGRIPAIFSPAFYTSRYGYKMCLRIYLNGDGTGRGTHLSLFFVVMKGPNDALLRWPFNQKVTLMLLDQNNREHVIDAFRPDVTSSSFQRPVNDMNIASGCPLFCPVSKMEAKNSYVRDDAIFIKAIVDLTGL

| Variant | effect of a mutation on the interaction |
| --- | --- |
| P256L | with no effect |
| Q248E | disrupting interaction strength |
| G244E | disrupting interaction strength |

Results, then the variant that gave them:

| effect of a mutation on the interaction | Variant |
| --- | --- |
| with no effect | I678V |
| with no effect | N398S |

Variants of: B1
Settings: with zsc22_human ZSCAN22, P10073
Sequence of zsc22_human ZSCAN22, P10073 (P10073 whole entry): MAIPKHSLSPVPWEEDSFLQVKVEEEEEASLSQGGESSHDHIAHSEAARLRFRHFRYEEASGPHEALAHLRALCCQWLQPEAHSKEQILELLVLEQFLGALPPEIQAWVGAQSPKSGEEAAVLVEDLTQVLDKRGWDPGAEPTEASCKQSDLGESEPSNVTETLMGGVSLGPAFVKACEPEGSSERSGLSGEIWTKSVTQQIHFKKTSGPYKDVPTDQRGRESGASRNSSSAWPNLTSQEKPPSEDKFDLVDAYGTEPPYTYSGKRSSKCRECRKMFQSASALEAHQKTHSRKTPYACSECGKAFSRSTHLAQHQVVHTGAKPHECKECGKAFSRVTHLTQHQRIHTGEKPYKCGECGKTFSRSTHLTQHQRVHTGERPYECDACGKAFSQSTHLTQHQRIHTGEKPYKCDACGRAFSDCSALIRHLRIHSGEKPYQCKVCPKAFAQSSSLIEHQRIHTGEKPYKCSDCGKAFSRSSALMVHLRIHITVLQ

| Variant | effect of a mutation on the interaction |
| --- | --- |
| P256L | disrupting interaction strength |
| Q248E | with no effect |
| G244E | with no effect |

Further lines, results first:

| effect of a mutation on the interaction | Variant |
| --- | --- |
| with no effect | I678V |
| with no effect | N398S |

Variants of: B1
Settings: with zn446_human ZNF446, Q9NWS9
Sequence of zn446_human ZNF446, Q9NWS9 (Q9NWS9 whole entry): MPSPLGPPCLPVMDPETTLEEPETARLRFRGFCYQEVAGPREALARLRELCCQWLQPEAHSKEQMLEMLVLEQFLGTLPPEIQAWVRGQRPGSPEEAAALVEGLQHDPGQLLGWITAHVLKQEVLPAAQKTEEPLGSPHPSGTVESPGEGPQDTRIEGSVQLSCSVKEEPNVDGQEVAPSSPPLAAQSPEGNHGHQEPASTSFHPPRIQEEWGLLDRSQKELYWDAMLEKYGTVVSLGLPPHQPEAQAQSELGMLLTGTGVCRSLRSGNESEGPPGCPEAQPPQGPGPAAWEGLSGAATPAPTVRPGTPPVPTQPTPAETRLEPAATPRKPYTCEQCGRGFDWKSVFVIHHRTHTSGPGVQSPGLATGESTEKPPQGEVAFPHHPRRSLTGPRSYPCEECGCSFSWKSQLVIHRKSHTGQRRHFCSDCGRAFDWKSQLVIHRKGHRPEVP

| Variant | effect of a mutation on the interaction |
| --- | --- |
| P256L | disrupting interaction strength |
| Q248E | with no effect |
| G244E | with no effect |

Second part, the variant after the results:

| effect of a mutation on the interaction | Variant |
| --- | --- |
| with no effect | I678V |
| with no effect | N398S |

Variants of: B1
Settings: with znf24_human ZNF24, P17028
Sequence of znf24_human ZNF24, P17028 (P17028 whole entry): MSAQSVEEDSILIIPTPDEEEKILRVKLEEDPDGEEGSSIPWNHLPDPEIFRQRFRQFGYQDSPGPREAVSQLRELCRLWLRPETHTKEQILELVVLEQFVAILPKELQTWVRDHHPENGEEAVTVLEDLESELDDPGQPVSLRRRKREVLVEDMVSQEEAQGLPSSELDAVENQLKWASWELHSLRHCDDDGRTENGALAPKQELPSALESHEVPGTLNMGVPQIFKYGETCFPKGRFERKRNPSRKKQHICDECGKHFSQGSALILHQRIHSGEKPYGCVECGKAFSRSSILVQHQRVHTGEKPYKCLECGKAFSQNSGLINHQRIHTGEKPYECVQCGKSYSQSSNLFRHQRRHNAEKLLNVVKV

| effect of a mutation on the interaction | Variant |
| --- | --- |
| with no effect | I678V |

Variants of: B2
Settings: with k22e_human KRT2, P35908
Sequence of k22e_human KRT2, P35908 (P35908 whole entry): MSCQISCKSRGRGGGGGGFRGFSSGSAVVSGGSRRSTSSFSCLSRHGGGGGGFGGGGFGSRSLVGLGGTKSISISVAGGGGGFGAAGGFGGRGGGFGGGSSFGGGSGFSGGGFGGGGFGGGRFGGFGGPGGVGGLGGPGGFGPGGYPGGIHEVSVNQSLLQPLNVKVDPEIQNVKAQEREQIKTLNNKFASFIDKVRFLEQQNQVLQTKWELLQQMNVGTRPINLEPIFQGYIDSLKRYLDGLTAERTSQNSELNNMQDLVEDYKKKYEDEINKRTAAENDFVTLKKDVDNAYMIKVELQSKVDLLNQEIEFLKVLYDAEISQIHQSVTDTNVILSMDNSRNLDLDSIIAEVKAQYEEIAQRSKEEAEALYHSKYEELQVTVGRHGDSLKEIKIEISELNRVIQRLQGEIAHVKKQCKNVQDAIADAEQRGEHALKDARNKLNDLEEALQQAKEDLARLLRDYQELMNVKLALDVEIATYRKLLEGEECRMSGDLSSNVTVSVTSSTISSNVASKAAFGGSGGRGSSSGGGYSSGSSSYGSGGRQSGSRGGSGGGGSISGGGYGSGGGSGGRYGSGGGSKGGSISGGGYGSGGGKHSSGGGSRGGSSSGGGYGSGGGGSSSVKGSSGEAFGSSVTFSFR

| effect of a mutation on the interaction | Variant |
| --- | --- |
| with no effect | R355H |

Variants of: B2
Settings: with k2c4_human KRT4, P19013
Sequence of k2c4_human KRT4, P19013 (P19013 whole entry): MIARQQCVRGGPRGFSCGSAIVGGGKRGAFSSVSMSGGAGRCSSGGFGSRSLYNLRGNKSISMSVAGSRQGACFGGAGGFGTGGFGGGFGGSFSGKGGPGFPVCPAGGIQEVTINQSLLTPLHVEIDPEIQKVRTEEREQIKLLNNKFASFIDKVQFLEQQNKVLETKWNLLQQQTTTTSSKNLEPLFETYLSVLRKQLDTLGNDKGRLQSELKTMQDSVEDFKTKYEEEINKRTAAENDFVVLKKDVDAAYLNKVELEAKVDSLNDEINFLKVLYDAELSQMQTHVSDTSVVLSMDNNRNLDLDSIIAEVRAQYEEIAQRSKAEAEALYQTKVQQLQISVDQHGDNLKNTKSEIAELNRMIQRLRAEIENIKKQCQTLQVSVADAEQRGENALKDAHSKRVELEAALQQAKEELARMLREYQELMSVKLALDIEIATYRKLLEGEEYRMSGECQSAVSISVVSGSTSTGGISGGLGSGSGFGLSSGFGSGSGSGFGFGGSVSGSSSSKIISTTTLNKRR

| effect of a mutation on the interaction | Variant |
| --- | --- |
| with no effect | R355H |

Variants of: B2
Settings: with KRT6A

| effect of a mutation on the interaction | Variant |
| --- | --- |
| with no effect | R355H |

Variants of: B2
Settings: with ccnc_human CCNC

| effect of a mutation on the interaction | Variant |
| --- | --- |
| with no effect | R355H |

Variants of: B3
Settings: with lnx1_human LNX1, Q8TBB1
Sequence of lnx1_human LNX1, Q8TBB1 (Q8TBB1 whole entry): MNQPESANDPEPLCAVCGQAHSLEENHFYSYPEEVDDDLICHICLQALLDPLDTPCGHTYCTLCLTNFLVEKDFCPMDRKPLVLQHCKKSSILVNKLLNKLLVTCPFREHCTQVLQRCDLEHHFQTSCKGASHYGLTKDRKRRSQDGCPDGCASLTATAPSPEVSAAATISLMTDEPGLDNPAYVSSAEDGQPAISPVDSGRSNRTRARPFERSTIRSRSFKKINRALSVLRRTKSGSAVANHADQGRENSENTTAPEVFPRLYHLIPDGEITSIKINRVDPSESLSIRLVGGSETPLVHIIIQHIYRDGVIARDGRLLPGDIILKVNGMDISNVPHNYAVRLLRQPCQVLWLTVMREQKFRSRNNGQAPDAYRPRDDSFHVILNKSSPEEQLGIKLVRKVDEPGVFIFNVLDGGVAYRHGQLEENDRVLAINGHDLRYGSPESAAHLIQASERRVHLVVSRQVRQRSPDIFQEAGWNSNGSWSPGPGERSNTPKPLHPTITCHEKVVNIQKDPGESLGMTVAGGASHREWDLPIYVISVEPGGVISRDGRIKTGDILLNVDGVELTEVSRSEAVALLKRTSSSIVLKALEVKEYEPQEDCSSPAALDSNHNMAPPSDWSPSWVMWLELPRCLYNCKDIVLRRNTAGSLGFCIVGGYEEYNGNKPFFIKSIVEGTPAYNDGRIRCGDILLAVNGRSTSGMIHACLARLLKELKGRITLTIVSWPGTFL

| effect of a mutation on the interaction | Variant |
| --- | --- |
| disrupting interaction strength | P77L |

Variants of: B4
Settings: with ldoc1_human LDOC1, O95751
Sequence of ldoc1_human LDOC1, O95751 (O95751 whole entry): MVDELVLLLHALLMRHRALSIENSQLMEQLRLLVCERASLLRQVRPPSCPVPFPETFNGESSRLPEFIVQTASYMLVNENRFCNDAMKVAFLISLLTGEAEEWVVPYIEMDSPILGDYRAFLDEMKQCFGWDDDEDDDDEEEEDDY

| effect of a mutation on the interaction | Variant |
| --- | --- |
| with no effect | V487A |
| with no effect | T579A |

Variants of: B4
Settings: with cep70_human CEP70, Q8NHQ1
Sequence of cep70_human CEP70, Q8NHQ1 (Q8NHQ1 whole entry): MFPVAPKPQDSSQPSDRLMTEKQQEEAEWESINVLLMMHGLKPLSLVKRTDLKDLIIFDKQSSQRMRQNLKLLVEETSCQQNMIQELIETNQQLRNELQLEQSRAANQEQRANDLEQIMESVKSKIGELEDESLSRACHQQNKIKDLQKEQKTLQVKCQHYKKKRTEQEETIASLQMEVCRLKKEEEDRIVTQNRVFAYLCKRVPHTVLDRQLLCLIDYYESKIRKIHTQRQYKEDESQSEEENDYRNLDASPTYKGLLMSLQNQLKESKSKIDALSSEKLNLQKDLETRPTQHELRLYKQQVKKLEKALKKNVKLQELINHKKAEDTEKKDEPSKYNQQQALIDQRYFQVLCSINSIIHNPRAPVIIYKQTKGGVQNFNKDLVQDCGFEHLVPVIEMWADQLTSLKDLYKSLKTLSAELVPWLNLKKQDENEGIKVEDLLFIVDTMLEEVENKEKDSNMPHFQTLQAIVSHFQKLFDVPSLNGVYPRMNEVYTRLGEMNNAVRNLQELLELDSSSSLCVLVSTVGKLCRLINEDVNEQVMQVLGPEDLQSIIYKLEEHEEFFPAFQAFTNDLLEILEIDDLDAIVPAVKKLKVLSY

| effect of a mutation on the interaction | Variant |
| --- | --- |
| with no effect | V256M |

Variants of: B5
Settings: with ccd92_human CCDC92, Q53HC0

| effect of a mutation on the interaction | Variant |
| --- | --- |
| with no effect | A37S |
| with no effect | N95K |
